The results in this text go back to article doi:10.1101/2022.06.14.496074 (bioRxiv, 2022).

The target in experiment [1] is T1, AcrA (E. coli (K12 derived strain)), P0AE06.
T1 chain: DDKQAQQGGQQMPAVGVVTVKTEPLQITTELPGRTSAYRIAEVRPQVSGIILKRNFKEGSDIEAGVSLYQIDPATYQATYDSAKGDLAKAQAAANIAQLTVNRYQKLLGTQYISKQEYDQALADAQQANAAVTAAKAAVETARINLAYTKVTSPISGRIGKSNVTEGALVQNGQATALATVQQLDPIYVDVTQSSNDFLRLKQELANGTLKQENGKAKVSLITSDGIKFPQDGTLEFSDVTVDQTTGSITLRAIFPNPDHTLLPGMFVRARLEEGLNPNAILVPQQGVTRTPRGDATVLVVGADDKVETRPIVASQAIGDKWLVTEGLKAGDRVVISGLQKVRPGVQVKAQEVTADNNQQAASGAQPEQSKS
Kind of experiment: SEC. The conditions noted are these: remark: other sources report otherwise.

Another experiment addresses T2, TolC (E. coli, UniProt P02930 23-493).
T2 sequence: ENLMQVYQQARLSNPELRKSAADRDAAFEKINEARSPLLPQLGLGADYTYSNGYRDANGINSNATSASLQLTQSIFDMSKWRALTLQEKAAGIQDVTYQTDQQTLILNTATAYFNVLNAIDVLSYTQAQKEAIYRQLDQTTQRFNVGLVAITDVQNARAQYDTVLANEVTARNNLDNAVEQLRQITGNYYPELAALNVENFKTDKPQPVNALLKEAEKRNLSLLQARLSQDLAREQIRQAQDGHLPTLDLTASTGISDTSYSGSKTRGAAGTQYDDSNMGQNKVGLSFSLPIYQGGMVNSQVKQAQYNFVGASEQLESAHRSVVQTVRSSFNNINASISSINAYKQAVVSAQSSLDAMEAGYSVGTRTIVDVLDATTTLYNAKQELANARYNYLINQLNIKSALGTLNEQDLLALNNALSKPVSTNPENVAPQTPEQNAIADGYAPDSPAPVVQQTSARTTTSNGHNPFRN
Kind of experiment: single-channel electrophysiology.

B1: AcrA (natural protein)
chain: DDKQAQQGGQQMPAVGVVTVKTEPLQITTELPGRTSAYRIAEVRPQVSGIILKRNFKEGSDIEAGVSLYQIDPATYQATYDSAKGDLAKAQAAANIAQLTVNRYQKLLGTQYISKQEYDQALADAQQANAAVTAAKAAVETARINLAYTKVTSPISGRIGKSNVTEGALVQNGQATALATVQQLDPIYVDVTQSSNDFLRLKQELANGTLKQENGKAKVSLITSDGIKFPQDGTLEFSDVTVDQTTGSITLRAIFPNPDHTLLPGMFVRARLEEGLNPNAILVPQQGVTRTPRGDATVLVVGADDKVETRPIVASQAIGDKWLVTEGLKAGDRVVISGLQKVRPGVQVKAQEVTADNNQQAASGAQPEQSKS
For B1, the stoichiometry N – broadly, a count of units in the complex or per binding partner – in experiment [1] worked out at 2. In addition, the binding result with TolC is “binds”.
